Experimental data reported in patent US20230183318A1.

Target: PD-L1
Test: -; literature value (Cheng et al., 2013)

PD-1 WT
Kd: 8.2 µM
